Experimental findings from patent publication US20230303667A1 are described below.

B1: 9.6.3A06 (antibody, V domains shown)
VH: EVQLLESGGGLVKPGGSLRLSCAASGFTFNEYMMNWVRQPPGKGLEWVSSISGTSTYINYADSVKGRFTISRDNAKNSLYLQMNSLRSDDTAMYYCARGSTGGYWGQGTLITVSS
VL: DIVMTQTPLSSAVTLGQPASISCRSSQRLVHSDGNTYLSWLHQRPGQPPRLLIYKVSLRFSGVPDRFSGSGAGTDFTLKISRVEAEDVGIYYCMQATQFPLTFGGGTKVEIK
B2: 9.6.1A09 (antibody, V domains shown)
VH: EVQLVESGGGLVQPGGSLRLSCAASGFTFRSYDMDWFRQSTGKGLEWVSAIGSAGDTYYTDSVKGRFTISRENGKNSLYLQMNSLRAGDTAVYYCARARFGDNVFDLWGRGTLVTVSS
VL: DIVMTQSPDSLAVSLGERASINCKSSQSVLSSSNTKNYLAWYQHKPGQPPKLLIYWASTRESGVPDRFSGSGSGTDFTLTISSLQPEDVAVYYCQQYYGAPYTFGQGTKVEIK
B3: 5.6.c2618 (antibody, V domains shown)
VH: QVQLVQSGAEVKKPGASVNLSCKGSGYSFRTYYIHWVRQAPGQGLEWMGIINSSGGGTTYAQKFQGRVTMTRDTSTSTVYMELRSLKYEDTAMYYCARDRFPTVSGEPFAMDVWGQGTTVTVSS
VL: EVVLTQSPVTLSLSPGERATLSCRASQSVSGYLAWYQQKPGQVPRLLIYDTSNRATGIPARFSGSGSGTDFTLTISTIEPEDFAVYYCQQRSKWGVTFGGGTKVDIK
B4: 2.10.1E06 (antibody, V domains shown)
VH: EVQLVESGGGLIQPGGSLRLSCTASGFTFSKFAMSWVRQAPGRGLEWISYISGGSKTKYYADSVRGRFTISRDNAKGSLFLQMNSLRAEDTAIYFCAKKGWQSTFLGMDYFYGMDVWGKGTTVTVSS
VL: EIVLTQSPGTLSLSPGERATLSCRASQSVTSNYLAWYQQKPGQAPRVLIYGASSRATGIPDRFSGSGSGTDFTLTISRLEPEDFAVYYCQQFGASPPYSFGQGTKVEIK
B5: 5.1.7D03 (antibody, V domains shown)
VH: EVQLVQSGGGLAQPGGSLRLSCAASGFTFRSYDMHWVRQVTGKGLEWVSAIGTAGDTYYTGSVKGRFTISRENDKSSLYLQMSSLRGEDTAVYYCARAAFGSHYFDYWGQGTLVTVSS
VL: EIVLTQSPGTLSLSPGERAALSCRASQSVSGNYFAWYQQKSGQAPRLLISAASSRATGVPDRFSASGSGTDFTLTISRLEPEDSAVYYCQQYGSSPLTFGQGTKVEIK
B6: 5.1.13G03 (antibody, V domains shown)
VH: QVQLQESGPGLVKPSGTLSLTCAVSGGSISSTNWWSWVRQPPGKGLEWIGEIYHSGSTNYNPSLKSRVTISLDKSKDQFSLKLSSVTAADTAVYYCAYSNTWTGGWGQGTLVTVSS
VL: DIQMTQSPSSLSASVGDRVTITCRASQSISSYLNWYQQKPGKAPKVLIYSAFSLQNGVPSRFSGSGSGTDFTLTISSLQPEDFATYYCQQSYSTPRTFGQGTKVEIK

This assay deals with Ebola Zaire (Kikwit strain) glycoprotein (Ebola Zaire (Kikwit strain)) (UniProt P87666). The experiment in a line: cell-based or functional assay.
Sequence of Ebola Zaire (Kikwit strain) glycoprotein (Ebola Zaire (Kikwit strain)) (P87666 33-676 limits assumed): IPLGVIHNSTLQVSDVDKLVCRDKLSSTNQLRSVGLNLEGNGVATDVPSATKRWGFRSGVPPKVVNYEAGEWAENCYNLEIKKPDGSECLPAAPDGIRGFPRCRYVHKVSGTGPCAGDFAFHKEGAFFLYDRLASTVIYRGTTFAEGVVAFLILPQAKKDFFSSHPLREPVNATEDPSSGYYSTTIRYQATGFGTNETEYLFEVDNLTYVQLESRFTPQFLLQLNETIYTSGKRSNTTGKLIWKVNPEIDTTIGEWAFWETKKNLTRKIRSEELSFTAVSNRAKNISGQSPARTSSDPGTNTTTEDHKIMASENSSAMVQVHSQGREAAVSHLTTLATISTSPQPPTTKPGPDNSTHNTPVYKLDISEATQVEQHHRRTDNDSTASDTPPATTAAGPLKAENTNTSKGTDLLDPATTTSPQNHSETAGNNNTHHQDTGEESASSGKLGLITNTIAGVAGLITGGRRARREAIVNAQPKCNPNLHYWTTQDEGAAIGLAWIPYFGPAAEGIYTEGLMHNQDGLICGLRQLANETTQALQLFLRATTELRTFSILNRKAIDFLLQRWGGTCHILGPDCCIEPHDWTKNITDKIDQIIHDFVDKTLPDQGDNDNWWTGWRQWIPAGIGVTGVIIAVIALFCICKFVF
B1: the PRNT50 (ug/ml) for Ebola Zaire (Kikwit strain) was 0.0488 µg/mL.

Molecule B2 yielded a PRNT50 (ug/ml) for Ebola Zaire (Kikwit strain) of 0.781 µg/mL.

On to B3, for which the PRNT50 (ug/ml) for Ebola Zaire (Kikwit strain) stood at 0.0061 µg/mL.

Molecule B4 showed a PRNT50 (ug/ml) for Ebola Zaire (Kikwit strain) of 0.781 µg/mL.

The molecule B5 gave a PRNT50 (ug/ml) for Ebola Zaire (Kikwit strain) of 1.57 µg/mL.

Molecule B6 showed a PRNT50 (ug/ml) for Ebola Zaire (Kikwit strain) of 0.0978 µg/mL.
